Legend:
[1] = biological target: extracellular domain of human LEPR with an N-terminal myc-myc tag, GPI-anchored on HEK293 cells (human) (UniProt P48357); assay: FACS, secondary alone, HEK293/hLEPR-GPI, no added Leptin
[2] = biological target: extracellular domain of human LEPR with an N-terminal myc-myc tag, GPI-anchored on HEK293 cells (human) (UniProt P48357); assay: FACS, secondary alone, HEK293/hLEPR-GPI, with 1 µM Leptin

Chain of extracellular domain of human LEPR with an N-terminal myc-myc tag, GPI-anchored on HEK293 cells (human) (P48357 22-839 limits assumed): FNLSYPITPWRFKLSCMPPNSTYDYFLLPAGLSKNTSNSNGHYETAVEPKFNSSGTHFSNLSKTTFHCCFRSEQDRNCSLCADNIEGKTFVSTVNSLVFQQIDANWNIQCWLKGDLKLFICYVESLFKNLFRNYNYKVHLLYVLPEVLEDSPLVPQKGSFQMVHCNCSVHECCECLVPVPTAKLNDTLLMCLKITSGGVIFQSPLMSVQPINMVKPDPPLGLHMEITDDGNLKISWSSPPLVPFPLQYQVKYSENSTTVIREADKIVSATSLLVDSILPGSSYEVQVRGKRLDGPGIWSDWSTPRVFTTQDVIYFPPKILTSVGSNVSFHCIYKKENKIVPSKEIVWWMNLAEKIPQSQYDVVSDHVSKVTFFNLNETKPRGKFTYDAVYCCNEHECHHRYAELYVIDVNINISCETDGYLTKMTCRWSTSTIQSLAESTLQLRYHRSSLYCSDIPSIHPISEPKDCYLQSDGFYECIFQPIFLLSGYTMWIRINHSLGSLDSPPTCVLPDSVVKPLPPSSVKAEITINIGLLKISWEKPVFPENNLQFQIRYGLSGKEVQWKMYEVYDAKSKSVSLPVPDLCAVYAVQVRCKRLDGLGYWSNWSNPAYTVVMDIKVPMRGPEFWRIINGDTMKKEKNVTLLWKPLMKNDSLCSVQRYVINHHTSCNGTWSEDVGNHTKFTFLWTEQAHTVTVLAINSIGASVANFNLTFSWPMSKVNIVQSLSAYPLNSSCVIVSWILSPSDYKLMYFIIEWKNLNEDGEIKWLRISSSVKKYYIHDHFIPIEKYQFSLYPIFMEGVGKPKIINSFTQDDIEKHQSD

| Binding Ratio [1] [fold] | Binding Ratio [2] [fold] | Substance |
| --- | --- | --- |
| 2 | 2 | Anti-mouse IgG secondary antibody alone |
| 3 | 3 | Anti-human IgG secondary antibody alone |

— patent publication US12715927
